Consider 8 sequences from the supplement of paper PMC11316812.

± gives the standard deviation of the averaged measurements.

Data set [1] relates to MCF7. As to the kind of experiment: percentage of EdU-negative (G0-arrested) nuclei per well, 72 h; higher = more G0 arrest. The conditions noted are these: reference: sequence is the full UniProt precursor, the tested protein was the secreted form or ectodomain.
Data set [2] concerns hTERT-HMEC. The data set is described as above. The following applies: reference: sequence is the full UniProt precursor, the tested protein was the secreted form or ectodomain.
Setting [3] is: protein concentration 0.0225 µM.
[4] abbreviates: protein concentration 0.03125 µM.
The mark [5] stands for this setting: protein concentration 0.3125 µM.
The mark [6] stands for this setting: protein concentration 0.00975 µM.
Where [7] appears, read: protein concentration 0.0975 µM.
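Note: secreted proteins added to cultured cells, EdU pulse at the end, nuclei found by Hoechst imaging, EdU status from nuclear versus surrounding ring intensity ratio, PBS as neutral control.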

For “MMWPMHTPLLLLTALMVAVAGSASAQSRTLAGGIHATDLNDKSVQCALDFAISEYNKVINKDEYYSRPLQVMAAYQQIVGGVNYYFNVKFGRTTCTKSQPNLDNCPFNDQPKLKEEEFCSFQINEVPWEDKISILNYKCRKV”, the “percentage of EdU-negative” value in data set [1] (setting [3]) came to 25.28 ± 0.24%; in data set [1] (protein concentration 0.225 µM) it was 25.3 ± 2%; in data set [2] (setting [3]) it was 4.35 ± 0.28%; in data set [2] (protein concentration 0.225 µM), 6.17 ± 0.2%.

“MNAFLLSALCLLGAWAALAGGVTVQDGNFSFSLESVKKLKDLQEPQEPRVGKLRNFAPIPGEPVVPILCSNPNFPEELKPLCKEPNAQEILQRLEEIAEDPGTCEICAYAACTGC”: the “percentage of EdU-negative” value in data set [1] (setting [3]) is 27.03 ± 0.26%; in data set [1] (protein concentration 0.225 µM) it was 24.3 ± 0.35%; in data set [2] (setting [3]), 5.03 ± 0.081%; in data set [2] (protein concentration 0.225 µM) it was 5.29 ± 0.21%.

For “MNCRELPLTLWVLISVSTAESCTSRPHITVVEGEPFYLKHCSCSLAHEIETTTKSWYKSSGSQEHVELNPRSSSRIALHDCVLEFWPVELNDTGSYFFQMKNYTQKWKLNVIRRNKHSCFTERQVTSKIVEVKKFFQITCENSYYQTLVNSTSLYKNCKKLLLENNKNPTIKKNAEFEDQGYYSCVHFLHHNGKLFNITKTFNITIVEDRSNIVPVLLGPKLNHVAVELGKNVRLNCSALLNEEDVIYWMFGEENGSDPNIHEEKEMRIMTPEGKWHASKVLRIENIGESNLNVLYNCTVASTGGTDTKSFILVRKADMADIPGHVFTRGMIIAVLILVAVVCLVTVCVIYRVDLVLFYRHLTRRDETLTDGKTYDAFVSYLKECRPENGEEHTFAVEILPRVLEKHFGYKLCIFERDVVPGGAVVDEIHSLIEKSRRLIIVLSKSYMSNEVRYELESGLHEALVERKIKIILIEFTPVTDFTFLPQSLKLLKSHRVLKWKADKSLSYNSRFWKNLLYLMPAKTVKPGRDEPEVLPVLSES”, the “percentage of EdU-negative” value in data set [1] (protein concentration 0.03 µM) was found to be 26.3 ± 1.8%; in data set [1] (protein concentration 0.3 µM), 28.5 ± 0.78%; in data set [2] (protein concentration 0.03 µM) it was 4.552 ± 0.028%; in data set [2] (protein concentration 0.3 µM), 15.3 ± 3%.

Take “MNCVCRLVLVVLSLWPDTAVAPGPPPGPPRVSPDPRAELDSTVLLTRSLLADTRQLAAQLRDKFPADGDHNLDSLPTLAMSAGALGALQLPGVLTRLRADLLSYLRHVQWLRRAGGSSLKTLEPELGTLQARLDRLLRRLQLLMSRLALPQPPPDPPAPPLAPPSSAWGGIRAAHAILGGLHLTLDWAVRGLLLLKTRL”: the “percentage of EdU-negative” value in data set [1] (setting [4]) stood at 26.7 ± 0.82%; in data set [1] (setting [5]), 25.4 ± 0.86%; in data set [2] (setting [4]), 4.51 ± 0.15%; in data set [2] (setting [5]), 6.32 ± 0.64%.

On to “MNGFASLLRRNQFILLVLFLLQIQSLGLDIDSRPTAEVCATHTISPGPKGDDGEKGDPGEEGKHGKVGRMGPKGIKGELGDMGDQGNIGKTGPIGKKGDKGEKGLLGIPGEKGKAGTVCDCGRYRKFVGQLDISIARLKTSMKFVKNVIAGIRETEEKFYYIVQEEKNYRESLTHCRIRGGMLAMPKDEAANTLIADYVAKSGFFRVFIGVNDLEREGQYMFTDNTPLQNYSNWNEGEPSDPYGHEDCVEMLSSGRWNDTECHLTMYFVCEFIKKKK [Q9Y6Z7]”, for which the “percentage of EdU-negative” value in data set [1] (setting [3]) is 24.36 ± 0.1%; in data set [1] (protein concentration 0.225 µM) it was 29.1 ± 0.55%; in data set [2] (setting [3]), 5.319 ± 0.012%; in data set [2] (protein concentration 0.225 µM), 7.17 ± 1.1%.

Consider “MNLAISIALLLTVLQVSRGQKVTSLTACLVDQSLRLDCRHENTSSSPIQYEFSLTRETKKHVLFGTVGVPEHTYRSRTNFTSKYNMKVLYLSAFTSKDEGTYTCALHHSGHSPPISSQNVTVLRDKLVKCEGISLLAQNTSWLLLLLLSLSLLQATDFMSL”, for which the “percentage of EdU-negative” value was determined as 27.7 ± 0.2% in data set [1] (setting [3]), 26.6 ± 1.3% in data set [1] (protein concentration 0.225 µM), 4.527 ± 0.039% in data set [2] (setting [3]) and 6.24 ± 0.86% in data set [2] (protein concentration 0.225 µM).

For the sequence “MNLWLLACLVAGFLGAWAPAVHTQGVFEDCCLAYHYPIGWAVLRRAWTYRIQEVSGSCNLPAAIFYLPKRHRKVCGNPKSREVQRAMKLLDARNKVFAKLHHNTQTFQAGPHAVKKLSSGNSKLSSSKFSNPISSSKRNVSLLISANSGL”, the “percentage of EdU-negative” value is 24.3 ± 1.7% in data set [1] (setting [6]), 25.01 ± 0.22% in data set [1] (setting [7]), 4.38 ± 0.21% in data set [2] (setting [6]) and 5.5688 ± 0.0047% in data set [2] (setting [7]).

Take “MNNLLCCALVFLDISIKWTTQETFPPKYLHYDEETSHQLLCDKCPPGTYLKQHCTAKWKTVCAPCPDHYYTDSWHTSDECLYCSPVCKELQYVKQECNRTHNRVCECKEGRYLEIEFCLKHRSCPPGFGVVQAGTPERNTVCKRCPDGFFSNETSSKAPCRKHTNCSVFGLLLTQKGNATHDNICSGNSESTQKCGIDVTLCEEAFFRFAVPTKFTPNWLSVLVDNLPGTKVNAESVERIKRQHSSQEQTFQLLKLWKHQNKDQDIVKKIIQDIDLCENSVQRHIGHANLTFEQLRSLMESLPGKKVGAEDIEKTIKACKPSDQILKLLSLWRIKNGDQDTLKGLMHALKHSKTYHFPKTVTQSLKKTIRFLHSFTMYKLYQKLFLEMIGNQVQSVKISCL”: the “percentage of EdU-negative” value in data set [1] (protein concentration 0.034 µM) came out at 22.2 ± 1.3%; in data set [1] (protein concentration 0.34 µM), 29.5 ± 1%; in data set [2] (protein concentration 0.034 µM) it was 4.98 ± 0.78%; in data set [2] (protein concentration 0.34 µM) it was 8.17 ± 0.14%.
